According to the supplement of paper PMC10567573:

B1: VPS39 (parent)
chain: TTLLKCYLHTNVALVAPLLRLENN

Variants of: B1
Experiment: protein stability index of a GFP-peptide fusion (GPS, HEK-293T) (PSI 1-6); higher = more stable
Details: c terminus: a fixed tail appended
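Further: lentivirally expressed fusions sorted by FACS into six bins by GFP to DsRed ratio, PSI derived from sequencing read proportions per bin multiplied by bin number.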

Row | Variant | protein stability index
1 | TTLLKCYLHTNVALVALLLRLENN | 2.13
2 | TTLLKCYLHTNVALVARLLRLENN | 1.38
3 | TTLLKCYLHTNNALVAPLLRLENN | 2.06
4 | TTLLKCYLHTNTALVAPLLRLENN | 3.04
5 | TTLLKCYLHTNFALVAPLLRLENN | 2.91
6 | TTLLKCYLHTNDALVAPLLRLENN | 1.97
7 | TTLLKCYLHTNKALVAPLLRLENN | 1.45
8 | TTLLKCYLHTNSALVAPLLRLENN | 3.9
9 | TTLLKCYLHTNQALVAPLLRLENN | 1.95
10 | TTRLKCYLHTNVALVAPLLRLENN | 2.57
11 | TTALKCYLHTNVALVAPLLRLENN | 3.88
12 | TTTLKCYLHTNVALVAPLLRLENN | 2.58
13 | TTWLKCYLHTNVALVAPLLRLENN | 3.19
14 | TTKLKCYLHTNVALVAPLLRLENN | 2.1
15 | TTQLKCYLHTNVALVAPLLRLENN | 3.31
16 | TTILKCYLHTNVALVAPLLRLENN | 2.18
17 | TTNLKCYLHTNVALVAPLLRLENN | 3.03
18 | TTYLKCYLHTNVALVAPLLRLENN | 3.01
19 | TTDLKCYLHTNVALVAPLLRLENN | 2.22
20 | TTLLKCYLHTNVALVAPLLELENN | 1.83
21 | TTLLKCYLHTNVALVAPLLVLENN | 2.63
22 | TTLLKCYLHTNVALVAPLLGLENN | 2.65
23 | TTLLKCYLHTNVALVAPLLTLENN | 3.38
24 | TTLLKCYLHTNVALVAPLLMLENN | 1.5

Row | Variant | protein stability index
25 | TTLLKCYLHTNVALVAPLLKLENN | 3.52
26 | TTLLKCYLHTNVALVAPLLDLENN | 2.23
27 | TTLLKCYLHTNVALVAPLLILENN | 3.11
28 | TTLLKCYLHRNVALVAPLLRLENN | 3.11
29 | TTLLKCYLHGNVALVAPLLRLENN | 3.27
30 | TTLLKCYLHYNVALVAPLLRLENN | 2.73
31 | TTLLKCYLHLNVALVAPLLRLENN | 2.35
32 | TTLLKCYLHHNVALVAPLLRLENN | 2.79
33 | TTLLKCYLHENVALVAPLLRLENN | 1.46
34 | TTLLPCYLHTNVALVAPLLRLENN | 1.88
35 | TTLLNCYLHTNVALVAPLLRLENN | 2.49
36 | TTLLECYLHTNVALVAPLLRLENN | 2.22
37 | TTLLSCYLHTNVALVAPLLRLENN | 4.1
38 | TTLLKCYLHTKVALVAPLLRLENN | 2.86
39 | TTLLKCYLHTGVALVAPLLRLENN | 1.33
40 | TTLLKCYLHTQVALVAPLLRLENN | 4.1
41 | TTLLKCYLHTCVALVAPLLRLENN | 2.59
42 | TTLLKCYLHTIVALVAPLLRLENN | 1.85
43 | TTLLKCYLHTDVALVAPLLRLENN | 4
44 | TTLLKCYHHTNVALVAPLLRLENN | 1.82
45 | TTLLKCYKHTNVALVAPLLRLENN | 1
46 | TTLLKCYNHTNVALVAPLLRLENN | 1.98
47 | TTLLKCYGHTNVALVAPLLRLENN | 1.57
48 | TTLLKCYFHTNVALVAPLLRLENN | 4.45

Row | Variant | protein stability index
49 | TTLLKCYVHTNVALVAPLLRLENN | 2.7
50 | TTLLKCYPHTNVALVAPLLRLENN | 1.13
51 | TTLLKCYCHTNVALVAPLLRLENN | 1.07
52 | TTLLKCYAHTNVALVAPLLRLENN | 2.49
53 | TTLLKCYRHTNVALVAPLLRLENN | 2.35
54 | TTLLKCYMHTNVALVAPLLRLENN | 4.41
55 | TTLLKCYLHTNVALVAPFLRLENN | 2.06
56 | TTLLKCYLHTNVALVAPELRLENN | 1.55
57 | TTLLKCYLHTNVALVAPPLRLENN | 2.27
58 | TTLLKCYLHTNVALVAPYLRLENN | 2.16
59 | TTLLKCYLPTNVALVAPLLRLENN | 1.59
60 | TTLLKCYLNTNVALVAPLLRLENN | 3.08
61 | TTLLKCYLFTNVALVAPLLRLENN | 2.82
62 | TTLLKCYLYTNVALVAPLLRLENN | 1.63
63 | TTLLKCYLTTNVALVAPLLRLENN | 3.1
64 | TTLLKCYLHTNVALVAPLLRSENN | 1.63
65 | TTLLKCYLHTNVALVAPLLRDENN | 1.59
66 | TTLLKCYLHTNVALVAPLLRIENN | 2.16
67 | TTLLKCYLHTNVALVAPLLRNENN | 3.2
68 | TTLLKCYLHTNVALVAPLLRFENN | 3.04
69 | TTLLKCYLHTNVALVAPLLRCENN | 3.59
70 | TTLLKCYLHTNVALVAPLLRKENN | 1.74
71 | TTLLKCYLHTNVALVAPLLRTENN | 2.9
72 | TTLLKCYLHTNVALVAPLLRGENN | 1.6

Row | Variant | protein stability index
73 | TTLLKCYLHTNVALVAPLLRQENN | 2.14
74 | TTLLKCYLHTNVALVAPLLREENN | 2.09
75 | TTLLKCYLHTNVALVAPLLRHENN | 1.51
76 | TTLLKCYLHTNVALVAPLLRMENN | 3.38
77 | TTLLKCELHTNVALVAPLLRLENN | 1.73
78 | TTLLKCRLHTNVALVAPLLRLENN | 1.76
79 | TTLLKCNLHTNVALVAPLLRLENN | 2.9
80 | TTLLKCVLHTNVALVAPLLRLENN | 2.59
81 | TTLLKCFLHTNVALVAPLLRLENN | 2.26
82 | TTLLKCPLHTNVALVAPLLRLENN | 1.7
83 | TTLLKCDLHTNVALVAPLLRLENN | 2.27
84 | TTLLKEYLHTNVALVAPLLRLENN | 2.38
85 | TTLLKIYLHTNVALVAPLLRLENN | 1.15
86 | TTLLKKYLHTNVALVAPLLRLENN | 2.11
87 | TTLLKTYLHTNVALVAPLLRLENN | 2.56
88 | TTLLKAYLHTNVALVAPLLRLENN | 1.25
89 | TTLLKQYLHTNVALVAPLLRLENN | 3.64
90 | TTLLKPYLHTNVALVAPLLRLENN | 2.19
91 | TQLLKCYLHTNVALVAPLLRLENN | 2.1
92 | TRLLKCYLHTNVALVAPLLRLENN | 2.85
93 | TALLKCYLHTNVALVAPLLRLENN | 1.61
94 | TLLLKCYLHTNVALVAPLLRLENN | 3.5
95 | TTLLKCYLHTNVALVNPLLRLENN | 2.16
96 | TTLLKCYLHTNVALVEPLLRLENN | 2.57

Row | Variant | protein stability index
97 | TTLLKCYLHTNVALVHPLLRLENN | 3.78
98 | TTLLKCYLHTNVALVRPLLRLENN | 2.05
99 | TTLLKCYLHTNVALVPPLLRLENN | 3.28
100 | TTLLKCYLHTNVALVWPLLRLENN | 1.72
101 | TTLLKCYLHTNVALVMPLLRLENN | 2.02
102 | TTLLKCYLHTNVALVGPLLRLENN | 2.87
103 | TTLLKCYLHTNVALVDPLLRLENN | 3.39
104 | TTLLKCYLHTNVALVAPLPRLENN | 1.52
105 | TTLLKCYLHTNVALVAPLERLENN | 2.02
106 | TTLLKCYLHTNVALVAPLCRLENN | 1.35
107 | TTLLKCYLHTNVALVAPLTRLENN | 2.11
108 | TTLLKCYLHTNVALVAPLHRLENN | 1.7
109 | TTLLKCYLHTNVALVAPLDRLENN | 2.11
110 | TTLLKCYLHTNVALVAPLVRLENN | 2.79
111 | TTLLKCYLHTNVALVAPLQRLENN | 1.46
112 | TTLLKCYLHTNVALVAPLWRLENN | 2.61
113 | TTLLKCYLHTNVALVAPLGRLENN | 1.97
114 | TTLLKCYLHTNVALVAPLLRLEKN | 2.27
115 | TTLLKCYLHTNVALVAPLLRLEAN | 2.22
116 | TTLLKCYLHTNVALVAPLLRLETN | 2.32
117 | TTLLKCYLHTNVALVAPLLRLERN | 2.37
118 | TTLLKCYLHTNVALVAPLLRLEQN | 3.88
119 | TTLLKCYLHTNVALVAPLLRLEEN | 2.49
120 | TTLLKCYLHTNVALVAPLLRLEVN | 2.67

Row | Variant | protein stability index
121 | TTLLKCYLHTNVALVAPLLRLELN | 2.85
122 | TTLLKCYLHTNVALVAPLLRLEMN | 2.81
123 | TTLLKCYLHTNVALVAPLLRLEWN | 1.88
124 | TTLLKCYLHTNVALVAPLLRLEFN | 2.11
125 | TTLWKCYLHTNVALVAPLLRLENN | 1.78
126 | TTLVKCYLHTNVALVAPLLRLENN | 3.82
127 | TTLSKCYLHTNVALVAPLLRLENN | 3.47
128 | TTLQKCYLHTNVALVAPLLRLENN | 1.92
129 | TTLPKCYLHTNVALVAPLLRLENN | 1.74
130 | TTLNKCYLHTNVALVAPLLRLENN | 1.25
131 | TTLFKCYLHTNVALVAPLLRLENN | 3.81
132 | TTLGKCYLHTNVALVAPLLRLENN | 3.33
133 | TTLMKCYLHTNVALVAPLLRLENN | 3.92
134 | TTLHKCYLHTNVALVAPLLRLENN | 2.36
135 | TTLKKCYLHTNVALVAPLLRLENN | 2.01
136 | TTLRKCYLHTNVALVAPLLRLENN | 2.48
137 | TTLTKCYLHTNVALVAPLLRLENN | 2.83
138 | KTLLKCYLHTNVALVAPLLRLENN | 3.52
139 | YTLLKCYLHTNVALVAPLLRLENN | 3.27
140 | CTLLKCYLHTNVALVAPLLRLENN | 1.07
141 | MTLLKCYLHTNVALVAPLLRLENN | 2.75
142 | ATLLKCYLHTNVALVAPLLRLENN | 3.76
143 | ITLLKCYLHTNVALVAPLLRLENN | 2.46
144 | TTLLKCYLHTNVALHAPLLRLENN | 2.17

Row | Variant | protein stability index
145 | TTLLKCYLHTNVALRAPLLRLENN | 1.85
146 | TTLLKCYLHTNVALFAPLLRLENN | 2.62
147 | TTLLKCYLHTNVALEAPLLRLENN | 1.35
148 | TTLLKCYLHTNVALIAPLLRLENN | 2.17
149 | TTLLKCYLHTNVALPAPLLRLENN | 3.16
150 | TTLLKCYLHTNVALDAPLLRLENN | 1.31
151 | TTLLKCYLHTNVALNAPLLRLENN | 2.07
152 | TTLLKCYLHTNVALWAPLLRLENN | 2.17
153 | TTLLKCYLHTNVALVAPLLRLRNN | 2.64
154 | TTLLKCYLHTNVALVAPLLRLWNN | 1.4
155 | TTLLKCYLHTNVALVAPLLRLNNN | 2.13
156 | TTLLKCYLHTNVALVAPLLRLMNN | 2.31
157 | TTLLKCYLHTNVALVAPLLRLANN | 1.66
158 | TTLLKCYLHTNVALVAPLLRLINN | 1.99
159 | TTLLKCYLHTNVALVAPLLRLSNN | 2.82
160 | TTLLKCYLHTNVALVAPLLRLKNN | 1.79
161 | TTLLKCYLHTNVALVAPLLRLVNN | 1.69
162 | TTLLKCYLHTNVALVAPLLRLHNN | 2.49
163 | TTLLKCYLHTNVALVAPLLRLCNN | 1.92
164 | TTLLKCYLHTNVALVAPLLRLENI | 2.02
165 | TTLLKCYLHTNVALVAPLLRLENL | 3.19
166 | TTLLKCYLHTNVALVAPLLRLENV | 1.5
167 | TTLLKCYLHTNVALVAPLLRLENK | 2.08
168 | TTLLKCYLHTNVALVAPLLRLEND | 2.7

Row | Variant | protein stability index
169 | TTLLKCYLHTNVALVAPLLRLENQ | 3.12
170 | TTLLKCYLHTNVALVAPLLRLENC | 3.2
171 | TTLLKCYLHTNVALVAPLLRLENH | 3.11
172 | TTLLKCYLHTNVWLVAPLLRLENN | 3.55
173 | TTLLKCYLHTNVDLVAPLLRLENN | 1.36
174 | TTLLKCYLHTNVVLVAPLLRLENN | 3.55
175 | TTLLKCYLHTNVMLVAPLLRLENN | 2.14
176 | TTLLKCYLHTNVAYVAPLLRLENN | 3.67
177 | TTLLKCYLHTNVAQVAPLLRLENN | 1.68
178 | TTLLKCYLHTNVAPVAPLLRLENN | 1.9
179 | TTLLKCYLHTNVANVAPLLRLENN | 2.16
180 | TTLLKCYLHTNVATVAPLLRLENN | 2.5
181 | TTLLKCYLHTNVAMVAPLLRLENN | 2.27
182 | TTLLKCYLHTNVADVAPLLRLENN | 1.5
183 | TTLLKCYLHTNVAEVAPLLRLENN | 1.57
184 | TTLLKCYLHTNVAAVAPLLRLENN | 2.83
185 | TTLLKCYLHTNVAIVAPLLRLENN | 3.28
186 | TTLLKCYLHTNVAVVAPLLRLENN | 2.25
187 | TTLLKCYLHTNVAHVAPLLRLENN | 3.13
188 | TTLLKCYLHTNVAFVAPLLRLENN | 1.55
